Assays:
[1] = target: c-Src SH2; assay: SH2 binding enrichment of the phosphorylated peptide, bacterial display (enrichment ratio); higher = better substrate or ligand; peptides without Tyr show the background
[2] = target: Grb2 SH2 (UniProt P62993); assay: as above
[3] = target: SHP2-C SH2; assay: as above
[4] = target: EPHB2 (UniProt P29323); assay: phosphorylation enrichment, bacterial display (enrichment ratio); higher = better substrate or ligand; peptides without Tyr show the background
[5] = target: Hck (UniProt P08631); assay: as above
[6] = tested on: c-Src; assay: as above
[7] = tested on: Fer (mouse); assay: as above
[8] = tested on: c-Abl (mouse); assay: as above
[9] = target: FGFR1 (UniProt P11362); assay: as above
[10] = target: FGFR3 (UniProt P22607); assay: as above
[11] = target: Fyn (UniProt P06241); assay: as above
[12] = target: Fes (UniProt P07332); assay: as above
[13] = tested on: AncSZ; assay: as above
[14] = target: EPHB1 (UniProt P54762); assay: as above
[15] = target: Jak2 (UniProt O60674); assay: as above
[16] = target: MERTK (UniProt Q12866); assay: as above
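Throughout, for SH2 binding enrichment of the phosphorylated peptide, bacterial display: peptide library displayed on the E. coli surface as eCPX fusions, selected cells deep-sequenced, score is each peptide's frequency after selection divided by its frequency in the input.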
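Throughout, for phosphorylation enrichment, bacterial display: 11-residue human phosphosite peptides and single-mutation variants displayed on the E. coli surface, counted by deep sequencing, each peptide's frequency after selection divided by its frequency in the unselected input library; frequency after pTyr selection over input frequency; kinase dosed for 20-30% of maximal phosphorylation in three min.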

Fes, sequence (P07332 whole entry, looked up): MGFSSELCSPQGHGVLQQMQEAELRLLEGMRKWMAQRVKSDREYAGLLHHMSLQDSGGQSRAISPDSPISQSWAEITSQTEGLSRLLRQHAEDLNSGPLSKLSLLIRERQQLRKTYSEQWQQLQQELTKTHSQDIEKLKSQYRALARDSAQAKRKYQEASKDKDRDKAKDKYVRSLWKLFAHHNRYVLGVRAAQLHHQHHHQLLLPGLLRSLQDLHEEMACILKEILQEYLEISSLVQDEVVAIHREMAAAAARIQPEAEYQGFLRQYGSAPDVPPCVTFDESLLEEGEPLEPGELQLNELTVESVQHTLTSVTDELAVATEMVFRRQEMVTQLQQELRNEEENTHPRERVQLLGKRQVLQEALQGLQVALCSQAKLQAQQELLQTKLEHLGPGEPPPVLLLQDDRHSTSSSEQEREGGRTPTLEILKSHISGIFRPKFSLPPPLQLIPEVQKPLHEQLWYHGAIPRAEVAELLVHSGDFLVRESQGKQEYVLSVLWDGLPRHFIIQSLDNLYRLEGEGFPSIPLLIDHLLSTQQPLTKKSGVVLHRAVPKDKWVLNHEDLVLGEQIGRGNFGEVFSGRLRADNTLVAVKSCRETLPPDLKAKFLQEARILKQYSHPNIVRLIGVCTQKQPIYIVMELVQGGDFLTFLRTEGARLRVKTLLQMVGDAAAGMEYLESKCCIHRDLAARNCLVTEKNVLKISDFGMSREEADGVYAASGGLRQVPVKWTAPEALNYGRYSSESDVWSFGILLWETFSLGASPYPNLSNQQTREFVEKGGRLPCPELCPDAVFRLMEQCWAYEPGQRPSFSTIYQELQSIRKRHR
EPHB2, sequence (P29323 whole entry, looked up): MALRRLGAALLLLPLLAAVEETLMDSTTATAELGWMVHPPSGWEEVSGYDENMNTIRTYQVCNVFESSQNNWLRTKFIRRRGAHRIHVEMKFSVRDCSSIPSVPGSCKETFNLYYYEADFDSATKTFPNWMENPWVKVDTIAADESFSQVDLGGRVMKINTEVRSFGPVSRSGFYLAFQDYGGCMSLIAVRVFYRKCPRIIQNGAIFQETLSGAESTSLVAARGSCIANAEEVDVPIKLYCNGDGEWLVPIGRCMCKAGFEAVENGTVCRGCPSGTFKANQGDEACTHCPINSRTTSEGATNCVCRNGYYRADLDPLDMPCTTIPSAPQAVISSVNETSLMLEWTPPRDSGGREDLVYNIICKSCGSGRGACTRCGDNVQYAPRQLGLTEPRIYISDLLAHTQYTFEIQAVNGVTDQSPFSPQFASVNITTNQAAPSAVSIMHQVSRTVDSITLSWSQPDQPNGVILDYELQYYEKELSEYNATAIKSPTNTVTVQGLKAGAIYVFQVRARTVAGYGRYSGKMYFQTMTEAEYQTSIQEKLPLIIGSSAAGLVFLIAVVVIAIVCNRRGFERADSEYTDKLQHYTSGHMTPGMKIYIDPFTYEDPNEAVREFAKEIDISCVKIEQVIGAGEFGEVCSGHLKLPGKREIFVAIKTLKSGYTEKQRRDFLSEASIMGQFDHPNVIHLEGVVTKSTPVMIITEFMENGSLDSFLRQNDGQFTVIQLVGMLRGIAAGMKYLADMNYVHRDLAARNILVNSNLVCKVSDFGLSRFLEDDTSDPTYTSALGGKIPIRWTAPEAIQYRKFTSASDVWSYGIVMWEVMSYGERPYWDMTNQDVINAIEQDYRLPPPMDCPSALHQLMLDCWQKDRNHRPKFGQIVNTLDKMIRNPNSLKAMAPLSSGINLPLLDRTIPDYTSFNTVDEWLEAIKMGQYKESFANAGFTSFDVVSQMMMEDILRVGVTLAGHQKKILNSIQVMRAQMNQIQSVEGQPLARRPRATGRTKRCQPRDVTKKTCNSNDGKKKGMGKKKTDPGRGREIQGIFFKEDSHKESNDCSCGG
Fyn, sequence (P06241 whole entry, looked up): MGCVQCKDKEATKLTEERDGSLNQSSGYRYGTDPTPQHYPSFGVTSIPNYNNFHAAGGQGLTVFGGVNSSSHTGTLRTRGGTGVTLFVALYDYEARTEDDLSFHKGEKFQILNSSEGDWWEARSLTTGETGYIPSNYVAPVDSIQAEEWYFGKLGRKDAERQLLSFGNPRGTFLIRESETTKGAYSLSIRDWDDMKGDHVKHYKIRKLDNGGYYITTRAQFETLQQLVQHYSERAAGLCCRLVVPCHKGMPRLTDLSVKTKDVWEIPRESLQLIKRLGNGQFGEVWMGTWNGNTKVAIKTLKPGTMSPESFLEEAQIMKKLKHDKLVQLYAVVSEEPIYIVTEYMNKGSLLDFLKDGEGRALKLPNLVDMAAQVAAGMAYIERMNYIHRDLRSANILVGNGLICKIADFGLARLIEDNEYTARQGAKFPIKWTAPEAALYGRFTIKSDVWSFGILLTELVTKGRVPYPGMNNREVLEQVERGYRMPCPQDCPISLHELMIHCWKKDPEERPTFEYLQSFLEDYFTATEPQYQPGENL
FGFR1, sequence (P11362 whole entry, looked up): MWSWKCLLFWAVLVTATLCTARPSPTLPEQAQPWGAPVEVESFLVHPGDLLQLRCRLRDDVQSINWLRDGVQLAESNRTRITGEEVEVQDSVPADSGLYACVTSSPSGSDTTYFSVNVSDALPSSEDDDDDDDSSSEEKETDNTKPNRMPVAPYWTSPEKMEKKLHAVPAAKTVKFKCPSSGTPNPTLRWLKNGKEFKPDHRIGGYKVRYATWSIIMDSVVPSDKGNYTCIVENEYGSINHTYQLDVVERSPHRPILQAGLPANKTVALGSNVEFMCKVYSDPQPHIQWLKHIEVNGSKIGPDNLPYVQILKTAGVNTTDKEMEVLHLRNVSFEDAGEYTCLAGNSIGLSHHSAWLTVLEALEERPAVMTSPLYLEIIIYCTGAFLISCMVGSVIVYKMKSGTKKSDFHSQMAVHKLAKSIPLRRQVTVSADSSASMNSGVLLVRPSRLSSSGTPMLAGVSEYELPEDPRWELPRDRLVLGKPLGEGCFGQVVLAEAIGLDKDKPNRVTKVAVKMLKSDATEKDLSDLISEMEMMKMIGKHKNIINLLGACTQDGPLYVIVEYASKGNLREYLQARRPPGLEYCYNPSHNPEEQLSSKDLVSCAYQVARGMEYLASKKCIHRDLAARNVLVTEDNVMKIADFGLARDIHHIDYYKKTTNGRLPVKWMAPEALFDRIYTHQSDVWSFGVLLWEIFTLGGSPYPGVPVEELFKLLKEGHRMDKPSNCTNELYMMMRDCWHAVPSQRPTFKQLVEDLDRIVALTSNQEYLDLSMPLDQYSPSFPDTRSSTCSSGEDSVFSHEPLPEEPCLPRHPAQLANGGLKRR
Hck, sequence (P08631 whole entry, looked up): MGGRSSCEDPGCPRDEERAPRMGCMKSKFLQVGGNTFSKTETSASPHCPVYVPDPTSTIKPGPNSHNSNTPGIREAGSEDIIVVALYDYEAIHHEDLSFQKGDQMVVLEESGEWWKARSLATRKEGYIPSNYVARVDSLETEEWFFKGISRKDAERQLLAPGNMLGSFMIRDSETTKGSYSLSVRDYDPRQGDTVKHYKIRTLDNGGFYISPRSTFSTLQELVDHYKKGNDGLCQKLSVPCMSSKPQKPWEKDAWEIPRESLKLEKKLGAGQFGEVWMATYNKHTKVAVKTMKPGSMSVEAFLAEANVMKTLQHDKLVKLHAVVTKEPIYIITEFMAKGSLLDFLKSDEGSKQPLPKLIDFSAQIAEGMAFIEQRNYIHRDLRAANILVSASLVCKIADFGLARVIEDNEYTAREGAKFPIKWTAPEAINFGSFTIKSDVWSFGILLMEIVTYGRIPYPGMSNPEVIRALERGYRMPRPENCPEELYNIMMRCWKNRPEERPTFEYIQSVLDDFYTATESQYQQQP
Jak2, sequence (O60674 whole entry, looked up): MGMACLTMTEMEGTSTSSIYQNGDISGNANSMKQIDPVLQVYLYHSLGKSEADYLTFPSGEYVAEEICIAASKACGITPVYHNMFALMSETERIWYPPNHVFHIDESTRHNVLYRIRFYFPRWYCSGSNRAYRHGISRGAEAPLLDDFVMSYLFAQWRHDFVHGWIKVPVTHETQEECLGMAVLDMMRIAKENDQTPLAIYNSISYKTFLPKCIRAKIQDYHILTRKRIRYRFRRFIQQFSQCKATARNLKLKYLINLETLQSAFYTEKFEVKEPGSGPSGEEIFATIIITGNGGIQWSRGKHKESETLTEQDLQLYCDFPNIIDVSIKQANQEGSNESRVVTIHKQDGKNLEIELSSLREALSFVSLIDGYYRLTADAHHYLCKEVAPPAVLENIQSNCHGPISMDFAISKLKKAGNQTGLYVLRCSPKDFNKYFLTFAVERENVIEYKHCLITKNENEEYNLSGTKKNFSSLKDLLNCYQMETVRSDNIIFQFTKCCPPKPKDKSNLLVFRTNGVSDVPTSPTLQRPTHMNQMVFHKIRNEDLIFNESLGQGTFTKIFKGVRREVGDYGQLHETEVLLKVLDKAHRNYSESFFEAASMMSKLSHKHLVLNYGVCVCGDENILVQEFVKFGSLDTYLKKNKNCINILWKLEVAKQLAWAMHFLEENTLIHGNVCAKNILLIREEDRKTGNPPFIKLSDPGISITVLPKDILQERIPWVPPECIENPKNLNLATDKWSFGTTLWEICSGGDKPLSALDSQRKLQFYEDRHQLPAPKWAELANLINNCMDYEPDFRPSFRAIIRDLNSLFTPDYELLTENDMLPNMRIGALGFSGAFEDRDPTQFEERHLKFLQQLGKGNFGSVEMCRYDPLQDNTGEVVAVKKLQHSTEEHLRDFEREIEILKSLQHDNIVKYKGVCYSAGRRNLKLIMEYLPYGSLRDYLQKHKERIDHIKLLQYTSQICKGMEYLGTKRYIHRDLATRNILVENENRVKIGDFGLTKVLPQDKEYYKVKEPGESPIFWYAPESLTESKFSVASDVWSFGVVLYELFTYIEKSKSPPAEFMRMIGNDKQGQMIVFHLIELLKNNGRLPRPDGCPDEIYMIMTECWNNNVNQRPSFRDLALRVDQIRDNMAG

Sequence | SH2 binding enrichment [1] | SH2 binding enrichment [2] | SH2 binding enrichment [3] | phosphorylation enrichment [4] | phosphorylation enrichment [5] | phosphorylation enrichment [6] | phosphorylation enrichment [7] | phosphorylation enrichment [8] | phosphorylation enrichment [9] | phosphorylation enrichment [10] | phosphorylation enrichment [11] | phosphorylation enrichment [12] | phosphorylation enrichment [13] | phosphorylation enrichment [14] | phosphorylation enrichment [15] | phosphorylation enrichment [16]
IDDNQYAYLKA [HNF4A_Y286_E285Q] | 1.47 | 0.87 | 0.898 | 0.667 | 2.12 | 0.48 | 1 | 1.02 | 2.93 | 1.69 | 0.668 | 0.91 | 0.993 | 0.558 | 0.753 | 0.876
RSSGPYGGGGQ [HNRNPA1_Y341] | 0.606 | 0.961 | 0.623 | 0.485 | 0.616 | 0.56 | 0.518 | 0.643 | 0.589 | 0.441 | 0.715 | 0.686 | 0.811 | 0.466 | 0.485 | 0.625
PRDSGYSFETI [MAP1B_Y1921_S1917R_YF] | 1.5 | 1.1 | 0.742 | 1.22 | 0.823 | 1.31 | 1.33 | 1.63 | 0.912 | 1.14 | 0.581 | 1.89 | 1.25 | 0.657 | 2.36 | 0.755
DSEIRYLSADS [TTF1_Y476] | 0.633 | 0.887 | 0.914 | 0.547 | 0.458 | 0.51 | 0.551 | 0.727 | 0.546 | 0.709 | 0.526 | 0.933 | 0.964 | 0.489 | 0.868 | 0.461
AFSLKYDQQTQ [SYTL4_Y366_E367D] | 0.555 | 0.824 | 0.64 | 0.69 | 0.614 | 0.48 | 0.485 | 0.716 | 0.539 | 0.784 | 0.522 | 1.14 | 1.03 | 0.484 | 1.03 | 0.406
IDSTPYRQWYE [RPS8_Y109] | 0.771 | 0.731 | 0.814 | 0.501 | 0.514 | 0.606 | 0.51 | 0.608 | 0.521 | 0.753 | 0.492 | 1.05 | 1.28 | 0.455 | 0.79 | 0.424
NELTYYCCKKD [CD59_Y87] | 0.438 | 0.78 | 0.766 | 1.17 | 3.04 | 3.91 | 3.67 | 1.48 | 7.15 | 3.92 | 2.92 | 1.3 | 1.9 | 0.923 | 2.83 | 4.45
KLYRVYCDMNT [FGB_Y269_P265L] | 1.22 | 0.868 | 0.715 | 0.702 | 0.623 | 0.549 | 0.52 | 0.696 | 0.452 | 0.693 | 0.608 | 1.07 | 0.978 | 0.769 | 0.838 | 0.466
IKGIRYLHHQG [GUCY2D_Y656_R660Q] | 0.829 | 0.871 | 0.716 | 0.387 | 0.401 | 0.428 | 0.417 | 0.403 | 0.465 | 0.45 | 0.378 | 0.587 | 0.684 | 0.45 | 0.414 | 0.455
QEALEYFMKQT [PIK3CA_Y1038_M1043T] | 0.41 | 0.584 | 0.685 | 1.64 | 1.05 | 1.6 | 1.82 | 1.85 | 1.67 | 2.76 | 1.93 | 3.76 | 3.3 | 1.31 | 3.01 | 0.813
GGFTCCCDGKK [PROS1_Y266_Y266C_YF] | 0.451 | 0.787 | 0.62 | 0.659 | 0.504 | 0.546 | 0.542 | 0.977 | 0.509 | 0.755 | 0.463 | 1.34 | 1.12 | 0.736 | 1.16 | 0.468
GQECKYPPTQD [METAP2_Y137_E136K] | 0.63 | 1.04 | 0.689 | 0.507 | 0.52 | 0.504 | 0.511 | 0.727 | 0.569 | 0.638 | 0.515 | 1.14 | 0.86 | 0.521 | 1.03 | 0.553
TGEKLYQRKEF [ZNF283_Y627] | 0.456 | 0.889 | 0.728 | 0.379 | 0.543 | 0.447 | 0.437 | 0.507 | 0.539 | 0.489 | 0.526 | 0.847 | 0.813 | 0.62 | 0.59 | 0.477
SETSRYLSELF [KCNJ3_Y67_D70E] | 0.588 | 0.883 | 0.774 | 0.498 | 0.464 | 0.346 | 0.376 | 0.535 | 0.509 | 0.537 | 0.397 | 0.882 | 1.07 | 0.467 | 0.783 | 0.382
RSAGKYDVFLI [MECP2_Y120_YF] | 0.914 | 1.03 | 0.677 | 0.563 | 0.714 | 0.533 | 0.618 | 0.85 | 0.352 | 0.748 | 0.556 | 0.758 | 0.558 | 0.697 | 0.775 | 0.561
ETKAFYPEEIS [HSPA1A_Y115] | 0.45 | 0.796 | 0.522 | 0.747 | 0.506 | 0.511 | 0.537 | 0.584 | 0.521 | 0.687 | 0.414 | 0.919 | 1.08 | 0.52 | 1.16 | 0.408
ISDDNYGRIRL [ARCN1_Y310_K309N] | 0.518 | 1 | 0.77 | 1.21 | 1.83 | 0.885 | 1.32 | 0.402 | 0.407 | 0.428 | 0.704 | 0.516 | 0.554 | 0.521 | 0.525 | 0.344

Sequence | SH2 binding enrichment [1] | SH2 binding enrichment [2] | SH2 binding enrichment [3] | phosphorylation enrichment [4] | phosphorylation enrichment [5] | phosphorylation enrichment [6] | phosphorylation enrichment [7] | phosphorylation enrichment [8] | phosphorylation enrichment [9] | phosphorylation enrichment [10] | phosphorylation enrichment [11] | phosphorylation enrichment [12] | phosphorylation enrichment [13] | phosphorylation enrichment [14] | phosphorylation enrichment [15] | phosphorylation enrichment [16]
QFNPEYVQQAS [LRRC7_Y1058_H1054Y_YF] | 0.458 | 0.871 | 0.642 | 0.778 | 0.792 | 0.518 | 0.648 | 0.904 | 0.741 | 0.761 | 0.687 | 1.46 | 1.79 | 1.02 | 1.3 | 0.638
NFYEYYVDDPL [GCHFR_Y48_P53L] | 0.856 | 0.984 | 0.726 | 7.76 | 2.29 | 4.67 | 6.36 | 1.04 | 7.28 | 5.52 | 4.96 | 1.74 | 2.81 | 6.99 | 1.64 | 7.76
VMLENYSNLVS [ZFP69_Y109] | 0.669 | 0.851 | 0.555 | 1.24 | 0.49 | 0.363 | 0.556 | 0.39 | 0.654 | 0.608 | 0.563 | 0.781 | 0.819 | 1.49 | 0.49 | 0.375
GPTLSYGRDGR [MATR3_Y158] | 0.532 | 0.692 | 0.739 | 0.347 | 0.379 | 0.332 | 0.306 | 0.369 | 0.363 | 0.377 | 0.33 | 0.526 | 0.435 | 0.276 | 0.449 | 0.488
HRAVEYLLTGI [RAD23A_Y197] | 0.575 | 0.851 | 0.846 | 0.636 | 0.7 | 0.458 | 0.488 | 0.709 | 0.8 | 0.817 | 0.739 | 1.02 | 0.991 | 0.846 | 0.736 | 0.549
YLGRDYLETLM [DUS3L_Y610] | 0.563 | 0.748 | 0.803 | 0.544 | 0.829 | 0.538 | 0.637 | 0.898 | 2.74 | 2.29 | 0.514 | 1.03 | 0.937 | 0.617 | 1.06 | 0.524
GESKDYALHAG [SVIL_Y185_V189A] | 0.521 | 0.78 | 0.739 | 0.527 | 0.38 | 0.413 | 0.366 | 0.488 | 0.365 | 0.455 | 0.421 | 0.566 | 0.548 | 0.479 | 0.493 | 0.36
RRIHRYRGHLW [VHL_Y112_S111R] | 0.389 | 0.532 | 0.531 | 0.445 | 0.462 | 0.49 | 0.376 | 0.382 | 0.43 | 0.452 | 0.468 | 0.524 | 0.563 | 0.507 | 0.375 | 0.575
EFKKKYSDADI [CKAP5_Y1860_YF] | 0.487 | 0.883 | 0.616 | 0.565 | 0.408 | 0.334 | 0.331 | 0.464 | 0.413 | 0.476 | 0.459 | 0.683 | 0.576 | 0.303 | 0.606 | 0.472
IGGHAYGDQYR [IDH1_Y135_R132G] | 0.416 | 0.776 | 0.548 | 0.368 | 0.428 | 0.36 | 0.448 | 0.386 | 0.364 | 0.382 | 0.382 | 0.59 | 0.52 | 0.405 | 0.431 | 0.357
GKTFTYRSVFF [ZNF80_Y200] | 0.575 | 0.878 | 0.965 | 0.466 | 0.374 | 0.412 | 0.457 | 0.693 | 0.388 | 0.562 | 0.43 | 0.951 | 0.809 | 0.464 | 0.744 | 0.42
VEDDMYRKTCT [XPA_Y257_L252V] | 0.494 | 0.894 | 0.828 | 0.636 | 0.626 | 0.544 | 0.696 | 0.932 | 0.559 | 0.868 | 0.602 | 1.3 | 1.33 | 0.676 | 1.33 | 0.507
CTTIHQNFMCN [TP53_Y234_Y234Q_YF] | 1.12 | 1.2 | 1.02 | 0.497 | 0.397 | 0.391 | 0.421 | 0.497 | 0.459 | 0.614 | 0.435 | 0.855 | 0.9 | 0.421 | 0.575 | 0.377
KLKEKYEKDIA [HMGB1_Y155] | 0.656 | 1.23 | 0.769 | 0.495 | 0.473 | 0.507 | 0.55 | 0.647 | 0.536 | 0.452 | 0.537 | 0.82 | 0.704 | 0.418 | 0.784 | 0.663
HRDSSYYWEIE [RAF1_Y340_Q335H] | 10.9 | 0.842 | 0.938 | 1.72 | 1.47 | 1.92 | 0.612 | 0.818 | 6.05 | 4.34 | 1.97 | 1.67 | 1.69 | 3.07 | 1.03 | 4.59
VIIVLYFSLWK [SLC6A2_Y249_V245I] | 1.3 | 1.95 | 1.74 | 0.371 | 0.369 | 0.386 | 0.471 | 0.693 | 0.462 | 0.548 | 0.375 | 0.631 | 0.774 | 0.363 | 0.702 | 0.354
